{"source": "FireProtDB (doi:10.1021/bi00185a025)", "proteins": {"B1": {"name": "Chemotaxis protein CheY wild type, P0AE67 (protein)", "chain": "MADKELKFLVVDDFSTMRRIVRNLLKELGFNNVEEAEDGVDALNKLQAGGYGFVISDWNMPNMDGLELLKTIRADGAMSALPVLMVTAEAKKENIIAAAQAGASGYVVKPFTAATLEEKLNKIFEKLGM"}}, "details": "Escherichia coli (strain K12); pH 7; 25 °C; Urea; CD; Sodium phosphate 5 mM; reversible: yes; whole UniProt chain shown"}
{"protein": "B1", "values": [{"measurement": "denaturant m value", "value": 1.6, "unit": "kcal/mol/M"}, {"measurement": "denaturant midpoint (higher = more stable)", "value": 3.25, "unit": "M"}, {"measurement": "unfolding free energy", "value": 5.2, "unit": "kcal/mol"}]}
